Measurements published in patent US7919104B2, “Functional epitopes of Streptococcus pneumoniae PsaA antigen and uses thereof” (priority 2005, dated 2011).
Values joined by “and” are separate entries in the source; they are usually repeats but may differ in a detail not shown here. Identical values can stand only once. No end group written: not given here.

Assays:
Detroit 562 cells [1] = assay: Adherence of rPsaA- or peptide-coated fluospheres (beads) to Detroit 562 cells; assay type: cell-based, human; conditions: 3,100±500 fluospheres per well; 2 hour incubation
Procedure: (§1) Carboxylate-modified fluorospheres (Molecular Probes™, […]) coated with either recombinant PsaA (rPsaA) or PsaA synthetic peptide (P4) were evaluated for their adherence to Detroit 562 NP cells. Four different batches of PsaA beads were generated by varying the concentration of the protein solution used to coat the beads (0.9 mg/ml, 0.53 mg/ml, 5.3 μg/ml and 0.53 μg/ml). P4 and Glycine control beads were generated by using a peptide solution (0.9 mg/ml). Protein concentrations were confirmed by the Bradford test (Sigma). PsaA and peptide beads were compared at similar inocula (1640±210 beads per well) in adherence and adherence competition assays (measured as mean fluorescent units (FU±SE)).
Recombinant PsaA protein or synthetic peptides were covalently bound to carboxylate-modified FluoSpheres (Molecular Probes, Eugene, Oreg.) (505/515 nm range, yellow, 1 μm in diameter). […] The 2% fluosphere stock was vortexed for 2 minutes at full speed. A 250-μl aliquot was sonicated for 5 minutes to break clumps. The sonicated fluospheres were washed 3 times by centrifugation at 10,000 rpm for 10 minutes in 250 μl MES buffer, pH 6.0 (Molecular Probes). The negative charge in the carboxylate-modified fluospheres was activated by adding 50 μl of EDAC solution (100 mg/ml, Molecular Probes) to the washed fluospheres resuspended in 200 μl MES. The fluospheres were incubated for 30 minutes RT with gentle rotation. A 250-μl volume of rPsaA (1 mg/ml) or peptide (2 mg/ml) resuspended in MES buffer was added to each fluosphere pellet. Suboptimal concentrations of rPsaA (900, 530, 5.3 and 0.53 μg/ml) were also used to generate partially coated fluospheres. Peptides were dissolved as 1 mg in 50 μl of 10% acetic acid followed by addition of 450 μl of MES buffer, pH 6.0. The 500-μl fluosphere suspension was incubated in the dark over night at room temperature with horizontal rotation (150 rpm). The remaining reactive sites were blocked by addition of a 50-μl volume of 1 M solution of glycine, followed by a-30-minute incubation at room temperature with horizontal rotation. The fluosphere suspension was then washed with 500 μl PBS, 50 mM, pH 7.2-7.4 three times by centrifugation at 10,000 rpm for 10 minutes. The first supernatant of the first wash was saved for protein determinations using the microtiter microdilution method of Bradford (Bio-Rad Laboratories, Calif.). The labeled fluosphere pellet was resuspended in 500 μl of PBS, 50 mM, pH 7.2-7.4. Labeled fluospheres were stored in the dark in 100-μl aliquots at 4° C. for up to 4 months. The peptides were stored in powder form at 4° C. under Dryerite desiccant. The resuspended peptides were stored at 4° C. for 6 weeks and for long term storage at −70° C. Fluospheres were counted by limiting dilution using a fluorometer (FLX-600, BioTek) with 485/520 nm excitation/emission wavelength and comparison to a calibration curve previously generated against hemacytometer counts.
Confluent monolayers of Detroit 562 cells grown in 96-well tissue culture plates for 6 days were washed once with 130 μl/well of PBS buffer+0.5% BSA (Sigma cat #A2153, Fraction V purified by alcohol precipitation). The entire outer perimeter of the microtiter plate was not used for adherence assays due to edge effect and lack of confluent growth in these wells. An 80-μl volume per well of PBS buffer+1% BSA and 20 μl per well of diluted fluosphere suspension (to yield ˜3100±500 fluospheres in a 20-μl volume) were added to the washed monolayers. The diluted fluosphere suspension was sonicated for 3 minutes prior to addition to the center of the wells. […] The sides of the plates were then tapped gently to mix. […] Following incubation, plates were washed 5 times with 130 μL/well of PBS+0.5% BSA. The liquid was removed after each wash with a multi-channel aspirator (Costar) and moderate vacuum. The plate was allowed to dry before reading in the fluorometer (485/520 nm). […]

Detroit 562 cells [2] = assay: Competitive inhibition of adherence of rPsaA-coated fluospheres to Detroit 562 cells; assay type: cell-based, human; conditions: for inhibition of rPsaA-fluosphere adherence, heterologous competition: peptide 10 μg/well
Procedure: as §1
(§2) Homologous competitive inhibitions with 0.5 to 10 μg per well of rPsaA protein or 5 to 20 μg per well of each peptide were performed to determine the specificity of the adherence for rPsaA-coated fluospheres or for each of the three peptide-coated fluospheres. Heterologous competitive inhibitions with each peptide (10 μg per well) were performed to determine which peptide blocked the adherence of whole PsaA-coated fluospheres to the Detroit 562 cells. Absorption of PsaA-specific antibodies was performed by incubation (2 hours at ambient room temperature with rotation, 100 rpm) of 500 μl (1:8 dilution) of the serum 7051 with nitrocellulose strips (2.5×0.5 cm), previously impregnated with rPsaA protein (1.8 mg/ml) and allowed to dry at 37° C. for 1 hour. Strips were replaced every 2 hours for a total of 3 changes. All antibody absorptions were performed in PBS (10 mM, pH 7.2) supplemented with 1% (weight/volume) BSA as a non-specific blocker. Immunoglobulin G (IgG) concentrations (μg/ml) were measured as previously described (Tharpe, Romero-Steiner) after each absorption step to monitor the decline of anti-PsaA antibodies.

Detroit 562 cells [3] = assay: Homologous competitive inhibition of adherence of rPsaA- or peptide-coated fluospheres to Detroit 562 cells; assay type: cell-based, human
Procedure: as §1, §2

pneumococci = conditions: antibodies to the peptides; cited from earlier work
Pneumococci (Pnc) = assay: Rabbit immunization with MAP of P4: serum inhibition of adherence of Pneumococci to Detroit 562 cells (anti Pneumococcal activity); assay type: in vivo, Streptococcus pneumoniae
Description: The MAPs consist of two arms, each consisting of SEQ ID NO:1 linked via lys or nle-lys to a resin.
Assessment of Serum Samples: • 1) Inhibition of adherence of P4 coated fluorescent beads to Detroit 562 cells (in vitro; tissue culture) to detect the presence of anti P4 antibodies in serum. • 2) Inhibition of adherence of PsaA coated fluorescent beads to Detroit 562 cells (in vitro; tissue culture) to detect the presence of anti PsaA antibodies in the serum. • 3) Inhibition of adherence of Pneumococci (Pnc) to Detroit 562 cells (in vitro; tissue culture) to detect the presence of anti Pnc antibodies in serum. Immunization with P4E—Analyses of Rabbit Sera for Anti P4 and Anti Pneumococcal (Pnc) Antibody: Animal 465

[4] = biological target: T1, P4 coated fluorescent beads (Streptococcus pneumoniae serotype 4, UniProt P0A4G2, D258K/D259R); assay: Rabbit immunization with MAP of P4: serum inhibition of adherence of P4 coated fluorescent beads to Detroit 562 cells (anti P4 activity); assay type: in vivo
T1 sequence (P0A4G2 251-278 D258K/D259R): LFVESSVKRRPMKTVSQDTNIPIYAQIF

[5] = homologous competitor 5.0 μg/well
[6] = homologous competitor 10 μg/well
[7] = homologous competitor 20 μg/well
[8] = rabbit serum 1:1000, Bleed # 1 (Day 28)
[9] = rabbit serum 1:1000, Bleed # 2 (Day 42)
[10] = rabbit serum 1:8000, Bleed # 1 (Day 28)
[11] = rabbit serum 1:8000, Bleed # 2 (Day 42)
[12] = rabbit serum 1:16000, Bleed # 2 (Day 42)
[13] = rabbit serum 1:32000, Bleed # 1 (Day 28)
[14] = rabbit serum 1:10, Bleed # 1 (Day 28)
[15] = rabbit serum 1:10, Bleed # 2 (Day 42)
[16] = rabbit serum 1:100, Bleed # 1 (Day 28)
[17] = rabbit serum 1:16000, Bleed # 1 (Day 28)
[18] = rabbit serum 1:32000, Bleed # 2 (Day 42)
[19] = rabbit serum 1:64000, Bleed # 1 (Day 28)
[20] = rabbit serum 1:64000, Bleed # 2 (Day 42)
[21] = rabbit serum 1:128000, Bleed # 1 (Day 28)
[22] = rabbit serum 1:128000, Bleed # 2 (Day 42)
[23] = rabbit serum 1:256000, Bleed # 1 (Day 28)
[24] = rabbit serum 1:256000, Bleed # 2 (Day 42)
[25] = rabbit serum 1:512000, Bleed # 1 (Day 28)
[26] = rabbit serum 1:512000, Bleed # 2 (Day 42)

Substance	mean adherence of coated fluospheres (mean FU±SE) (Detroit 562 cells [1])	inhibition of rPsaA-fluosphere adherence, heterologous competition (Detroit 562 cells [2]) [%]	percent reduction in adherence of homologous coated fluospheres (Detroit 562 cells [3]; [5]) [%]	percent reduction in adherence of homologous coated fluospheres (Detroit 562 cells [3]; [6]) [%]	percent reduction in adherence of homologous coated fluospheres (Detroit 562 cells [3]; [7]) [%]	colonization in mice immunized with the peptides (pneumococci)	Anti Pneumococcal activity, % inhibition of adherence (% IA) (Pneumococci (Pnc); [8])	Anti Pneumococcal activity, % inhibition of adherence (% IA) (Pneumococci (Pnc); [10])	Anti Pneumococcal activity, % inhibition of adherence (% IA) (Pneumococci (Pnc); [11])	Anti P4 activity, % inhibition of adherence (% IA) [4, 14]	Anti P4 activity, % inhibition of adherence (% IA) [4, 15]	Anti P4 activity, % inhibition of adherence (% IA) [4, 16]	Anti P4 activity, % inhibition of adherence (% IA) [4, 8]	Anti P4 activity, % inhibition of adherence (% IA) [4, 9]	Anti P4 activity, % inhibition of adherence (% IA) [4, 10]	Anti P4 activity, % inhibition of adherence (% IA) [4, 11]	Anti P4 activity, % inhibition of adherence (% IA) [4, 17]	Anti P4 activity, % inhibition of adherence (% IA) [4, 12]	Anti P4 activity, % inhibition of adherence (% IA) [4, 18]	Anti P4 activity, % inhibition of adherence (% IA) [4, 19]	other results
RSYQHDLRAYGFWRL [P2, synthetic peptide identified by phage display, reference compound]	17,195±1,044 FU	62.2	43.1	20.5	0.8	reduce colonization	–	–	–	–	–	–	–	–	–	–	–	–	–	–	–
LVRRFVHRRPHVE-SQ (LVRRFVHRRPHVESQ) [P3, synthetic peptide identified by phage display, reference compound]	9,780±228 FU	75.2	−7.3	5.2	44.2	reduce colonization	–	–	–	–	–	–	–	–	–	–	–	–	–	–	enhancement of the binding of rPsaA fluospheres (Detroit 562 cells [2]; unsaturated fluospheres (530 μg/ml of rPsaA), data not shown): < 2.5 fold
P4E2: Multi Antigenic Peptide (MAP) of P4: two arms, each SEQ ID NO:1, linked via lys or nle-lys to a resin (chain 1 LFVESSVKRRPMKTVSQDTNIPIYAQIF; chain 2 LFVESSVKRRPMKTVSQDTNIPIYAQIF; not fully specified; also: MAP: two identical arms on a Lys or Nle-Lys core)	–	–	–	–	–	–	22% and 23%	19% and 21%	22% and 16%	50% and 56%	74% and 75%	0%	0%	4% and 1%	0%	1% and 2%	0%	0%	0%	0%	Anti Pneumococcal activity, % inhibition of adherence (% IA) (Pneumococci (Pnc); [9]): 33% and 20%; Anti Pneumococcal activity, % inhibition of adherence (% IA) (Pneumococci (Pnc); [12]): 18% and 12%; Anti Pneumococcal activity, % inhibition of adherence (% IA) (Pneumococci (Pnc); [13]): 0%; Anti P4 activity, % inhibition of adherence (% IA) ([4]; rabbit serum 1:100, Bleed # 2 (Day 42)): 0% and 3%; Anti P4 activity, % inhibition of adherence (% IA) [4, 13]: 0%; Anti P4 activity, % inhibition of adherence (% IA) [4, 20]: 2% and 4%; Anti P4 activity, % inhibition of adherence (% IA) [4, 21]: 0%; Anti P4 activity, % inhibition of adherence (% IA) [4, 22]: 4% and 0%; Anti P4 activity, % inhibition of adherence (% IA) [4, 23]: 0%; Anti P4 activity, % inhibition of adherence (% IA) [4, 24]: 4% and 5%; Anti P4 activity, % inhibition of adherence (% IA) [4, 25]: 0%; Anti P4 activity, % inhibition of adherence (% IA) [4, 26]: 0%
P4E: Multi Antigenic Peptide (MAP) of P4: two arms, each SEQ ID NO:1, linked via lys or nle-lys to a resin (chain 1 LFVESSVKRRPMKTVSQDTNIPIYAQIF; chain 2 LFVESSVKRRPMKTVSQDTNIPIYAQIF; also: MAP: two P4 arms on a Lys or Nle-Lys core)	–	–	–	–	–	–	24% and 38%	23% and 34%	13% and 21%	39% and 46%	43% and 48%	32% and 29%	33% and 41%	9% and 12%	6% and 9%	5% and 4%	12% and 15%	7% and 1%	9% and 5%	22% and 21%	Anti Pneumococcal activity, % inhibition of adherence (% IA) (Pneumococci (Pnc); [17]): 25% and 27%; Anti Pneumococcal activity, % inhibition of adherence (% IA) (Pneumococci (Pnc); [18]): 14% and 16%; Anti P4 activity, % inhibition of adherence (% IA) [4, 20]: 6% and 3%; Anti P4 activity, % inhibition of adherence (% IA) [4, 21]: 10% and 15%; Anti P4 activity, % inhibition of adherence (% IA) [4, 22]: 5% and 9%; Anti P4 activity, % inhibition of adherence (% IA) [4, 23]: 5% and 7%; Anti P4 activity, % inhibition of adherence (% IA) [4, 24]: 0% and 3%; Anti P4 activity, % inhibition of adherence (% IA) [4, 25]: 5% and 7%; Anti P4 activity, % inhibition of adherence (% IA) [4, 26]: 6% and 3%
TVSRVPWTAWAFHGY [P1, synthetic peptide identified by phage display, reference compound]	52,684±4,354 FU	88.1	50.2	60.9	34.1	reduce colonization	–	–	–	–	–	–	–	–	–	–	–	–	–	–	–
